# Source: PMC8194098
# Molecular target: Ras:G12V mutant (UniProt P01112)
# Test: pull-down
binder,measurement,value
RIN1-RA:R629A mutant (natural protein) MESPGESGAGSPGAPSPSSFTTGHLAREKPAQDPLYDVPNASGGQAGGPQRPGRVVSLRERLLLTRPVWLQLQANAAAALHMLRTEPPGTFLVRKSNTRQCQALCMRLPEASGPSFVSSHYILESPGGVSLEGSELMFPDLVQLICAYCHTRDILLLPLQLPRAIHHAATHKELEAISHLGIEFWSSSLNIKAQRGPAGGPVLPQLKARSPQELDQGTGAALCFFNPLFPGDLGPTKREKFKRSFKVRVSTETSSPLSPPAVPPPPVPVLPGAVPSQTERLPPCQLLRRESSVGYRVPAGSGPSLPPMPSLQEVDCGSPSSSEEEGVPGSRGSPATSPHLGRRRPLLRSMSAAFCSLLAPERQVGRAAAALMQDRHTAAGQLVQDLLTQVRAGPEPQELQGIRQALSRARAMLSAELGPEKLLSPKRLEHVLEKSLHCSVLKPLRPILAARLRRRLAADGSLGRLAEGLRLARAQGPGAFGSHLSLPSPVELEQVRQKLLQLLRTYSPSAQVKRLLQACKLLYMALRTQEGEGAGADEFLPLLSLVLAHCDLPELLLEAEYMSELLEPSLLTGEGGYYLTSLSASLALLSGLGQAHTLPLSPVQELRRSLSLWEQRRLPATHCFQHLLAVAYQDPSSGCTSKTLAVPPEASIATLNQLCATKFRVTQPNTFGLFLYKEQGYHRLPPGALAHRLPTTGYLVYRRAEWPETQGAVTEEEGSGQSEARSRGEEQGCQGDGDAGVKASPRDIREQSETTAEGGQGQAQEGPAQPGEPEAEGSRAAEE,percent inhibition of binding,80%
